The target of the assay is C3b (UniProt P01024). The assay can be described thus: microplate/western blot assay; protocol 1, formation step: C3b-coated wells; FB 1,000 ng/ml, FD 10 ng/ml, 10 mM MgCl2, 100 ug/ml control or patients' IgGs, 12 min at 25 C, without or with FH 2,640 ng/ml during formation; density of the Bb band with FH over that without FH. A general note: A western blot detects proteins with antibodies after separation by electrophoresis.

Turning to “factor H (from UniProt P08603 19-1231) (natural protein)”, the ratio Bb band + FH / Bb band without FH (with FH-CSA+ C3NeF IgGs of patients) was determined as 0.58, the ratio Bb band + FH / Bb band without FH (with FH-CSA- C3NeF IgGs of patients) stood at 0.32 and the ratio Bb band + FH / Bb band without FH (with control IgGs) was found to be 0.32.

Source of the values: article PMC6248175.
